Results from paper PMC10638403.

Target: full-length E. coli ClpX (E. coli) (UniProt P0A6H1)

- rate of ClpP degradation of FITC-casein (50 µM, 30 °C) supported by full-length ∆NPS ClpX against wild-type ClpX (against ~10-fold for ∆NPS ClpX^∆N over ClpX^∆N): 2 fold
Substance: FITC-casein
